Experimental data from the nanobody polyreactivity screen of Harvey et al. (2022).

Assay: yeast display, Sf9 membrane polyspecificity reagent, FACS + sequencing; frameworks hold sequencing errors
How it was run: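 A synthetic nanobody library was expressed on Saccharomyces cerevisiae BJ5465 by galactose induction for 36–48 hours. The library was stained for 1 hour at 4 °C with 10% biotinylated, detergent-solubilized Sf9 membrane reagent and enriched with streptavidin microbeads before FACS. Low and high (top ~1%) gates were set on anti-HA fluorescence for expression and streptavidin fluorescence for reagent binding, and each polyreactivity label reflects the gate of origin.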

Row | Sequence | polyreactivity (PSR sort gate)
1 | QVQLVESGGGLVQAGGSLRLSCAASGFILATYAMGCYRQAPGKERELVAAISASGSSTYYADSVKGRFTISRDNAKNTVYLQMNSLKPEDTAVYYCAASWGYGALTPDMGYWGQGTQVTVSS | low polyreactivity
2 | QVQLVESGGGLVQAGGSLRLSCAASGFILAYYAMGWSRQAPGKERELVAAISIGSSTDYADSVKGRFTISRDNAKNTVYLQINSVKPEDTAVYDFAARDYYYEYDYWGQGTQVTVSS | low polyreactivity
3 | QVQLVESGGGLVQAGGSLRLSCAASGFILAYYAMGWYRQSPGKERELVAAISIGSSTDYADSVKGRFTISRDNAKNTVYLQMNSLKPEDTAVYYCAARDYYYEYDYWGQGTQVTVSS | low polyreactivity
4 | QVQLVESGGGLVQAGGSLRLSCAASGFILDFNAMGWYRQAPGKERELVAAISISGVSTYYADSVKGRFTISRDNAKNTVYLQMNSLKPEDTAVYYCAAAQDAAVYWRPGGYDYWGQGTQVTVSS | low polyreactivity
5 | QVQLVESGGGLVQAGGSLRLSCAASGFILDRYAMGWYRQAPGKERELVASITSGGSTNYADSVKGRFTISRDNAKNTVYLQMNSLKPEDTAVYYCAAYPWRYWNHEYNYWGQGTQVTVSS | high polyreactivity
6 | QVQLVESGGGLVQAGGSLRLSCAASGFILDYNAMGWSRQAPGKERELVASIDSGGGTNYADSVKGRFTISRDNAKNTVYLQMNSLKPEDTAVYYCAADVTLWYDYGGQGTQVTVSS | low polyreactivity
7 | QVQLVESGGGLVQAGGSLRLSCAASGFILFPNAMGWYRQAPGKERELVAAITSGGRTNYADSVKGRFTISRDNAKNTVYLQMTSLKPEDTAVYYCAYVGYWWGYDYWGQGTQVTVSS | low polyreactivity
8 | QVQLVESGGGLVQAGGSLRLSCAASGFILGGYAMGWYRQAPGKERELVAAISWSSGSTYYADSVKGRFTISRDNAKNTVYLQMNSLIPEDTAVYYCAAVGAYDYWGQGTQVTVSS | low polyreactivity
9 | QVQLVESGGGLVQAGGSLRLSCAASGFILGTNAMGWYRQAPGKERELVAAISSGGGSTYYADSVMGRFTISRDNAKNTVYLQMNSQKPEDTAVYYCAADNVWGYPEDDYWGQGTQVTVSS | low polyreactivity
10 | QVQLVESGGGLVQAGGSLRLSCAASGFILIQYAMGWYRQAPGKERELVAAITWSDTSTNYADSVKGRFTISRDNAKNTVYLQMNSLKPEDTAVYYCNADLYGAQDRRLDYYAEGYWGQGTQVTVSS | low polyreactivity
11 | QVQLVESGGGLVQAGGSLRLSCAASGFILLDNAMGWYRQAPGKEREFVASINISGDRTFYADSVKGRFTISRDNAKNTVYLQMNSLKPEDTAVYYCAKEPGWGRRSTTAYDYWGQGTQVTVSS | low polyreactivity
12 | QVQLVESGGGLVQAGGSLRLSCAASGFILPTYAMGWYRQAPGKERELVAAITRSGGSTYYADSVKGRFTISRDNAKNTVYLQMNSLKPEDTAVYYCAAQRLSASRPYGYWGQGTQVTVSS | high polyreactivity
13 | QVQLVESGGGLVQAGGSLRLSCAASGFILPYYTMGWYRQAPGKERELVAAITYSGASTFYADSVKGRFTISRDNAKNTVYLQMNSLKPEDTAVYYCAKEWSGWYESPLDDGDYDYWGQGTQVTVSS | low polyreactivity
14 | QVQLVESGGGLVQAGGSLRLSCAASGFILQRYAMGWYRKAPGKERELVAAITSSGGRTYYADSVKGRFTISRDNANNTVYLQMNSLKPEDTAVYYCNTVLVYYRMIKFEYWGQGTQVTVSS | high polyreactivity
15 | QVQLVESGGGLVQAGGSLRLSCAASGFILQYNAMGWYRQAPGKEREFVATITGSGGSTYYADSVKGRFTISRDNAKNTVYIQMYSLKPEDTAFYYCNAETYIDLSGKFPVDYDYWGQGTQVTVSS | low polyreactivity
16 | QVQLVESGGGLVQAGGSLRLSCAASGFILRGYDMGWYRQATGKERELVATITTGGSTYYADSVKGRFTISRDNAKNTVYLQMNSLKPEDTAVYYCAGRRRGSVGVGYANPYNYWGQGTQVTVSS | high polyreactivity
17 | QVQLVESGGGLVQAGGSLRLSCAASGFILRYYAMGWYRQAPGKERELVAAISSGGGTYYADSVKGRFTISRDNAKNTVYLQMNSLKPEDTAVYYCAAVYWGLWHWLYTDDDGDYWGQGTQVTVSS | high polyreactivity
18 | QVQLVESGGGLVQAGGSLRLSCAASGFILRYYVMGWYRQAPGKERELVAAISSSGGRTYYADSVKGRFTISRDNAKNTVYLQMNSLKPEDTGVYYCATSTYAYRRKSYFYTRPRFGYWGQGYQVTVSS | high polyreactivity
19 | QVQLVESGGGLVQAGGSLRLSCAASGFILSPNTMGWYRQAPGKERALVAAISSDVSTYADSVKGRFTISRDNAKNTVYLQMNSLKPEDTAVYYCNADAFGYASYEYWGQGTQVTVSS | low polyreactivity
20 | QVQLVESGGGLVQAGGSLRLSCAASGFILVFYARGWYRPAPGKERELVAAIDWSGTITYYADSVKGRFTISRDNAKNTVYLQMNSLKPEDTAVYYCAADGEPFYDFYYWGQGTQVTVSS | high polyreactivity
21 | QVQLVESGGGLVQAGGSLRLSCAASGFILVGYAMGWYRKAPGKERELVAAISSGDSTNYADSVKGRFTISRDNAKNSVYLQMNSLKPEDTAVYYCAARFIFWVYDYDYWGQGTQVTLSS | low polyreactivity

Row | Sequence | polyreactivity (PSR sort gate)
22 | QVQLVESGGGLVQAGGSLRLSCAASGFILYFNAMGWYRQAPGKDRELVAVISCTGVRTNYADSVKGRFTISRDNAKNTVYLQMNSLKPEDTAVYYCAAGYYSYRPRDYWGQGTQVTVSS | low polyreactivity
23 | QVQLVESGGGLVQAGGSLRLSCAASGFILYGNAMGWYRQAPGKERELVAAISRRGGSTYYADSVKGRFTISRDNAKNTVYLQMNSLKPEDTALYYCAKDGPGGGTRIYDYWGQGTQVTVSS | high polyreactivity
24 | QVQLVESGGGLVQAGGSLRLSCAASGFILYYYALGWYRQAPGKEWEIVAAISRNGGRTYYADSVKGRFTISRDNAKNTVYLQMISLKPEDTAVDYCNKGVSRTLSSAYEYWGQGTQVTVSS | high polyreactivity
25 | QVQLVESGGGLVQAGGSLRLSCAASGFIQDYYAMGWYRHAPGKERELDAAISSGGTDTYYADSVKGRFTVSRDTAKNTVYLQMNSLKPEDTAVYYFAADSYWSAYDYWGQGTQVTVSS | low polyreactivity
26 | QVQLVESGGGLVQAGGSLRLSCAASGFIRGYYDMGWYRQAPGKERELVAAISSGGRTYYADSVKGRFTISRDNAKNTVYLQMNSLKPEDTAVYYFNAYAPRRRFDYWGQGTQVTVSS | high polyreactivity
27 | QVQLVESGGGLVQAGGSLRLSCAASGFISDDYAMGWYRQAPGKERELVAAISDSGVDTYYADSVKGRFTISRDNAKNTVYLQMNSLKPEDTAVYYCNKRYVIRRRGYDYWGQGTQVTVSS | low polyreactivity
28 | QVQLVESGGGLVQAGGSLRLSCAASGFISGSNVMGWYRQAPGKERELVAAINWSGDNTYYADSVKGRFTISRDNAKNTVYLQMNSLKPEDTAVYYCNADVYSYATPEMDYWGQGTQVTVSS | low polyreactivity
29 | QVQLVESGGGLVQAGGSLRLSCAASGFISKYYAMVWYRQAPGKERELVAAITRSGTSTYYADSVKGRFTISRDNAKNTVYLQMNSLTPEDTAVYYCAAVSGGRTPRYYYWGQGTQVTVSS | high polyreactivity
30 | QVQLVESGGGLVQAGGSLRLSCAASGFISRTNAMGWSRQEPGKERELVAGINSGGNTYYADSVKGRFTISRDNAKNTVYLQMNSLKPEDTADYYCAALWSLRRSRPRFDYWGQGTQVTVSS | high polyreactivity
31 | QVQLVESGGGLVQAGGSLRLSCAASGFISSENAMGWYRQAPGKERELVAAISSGGSTNYADSVKGRFTISRDNAKNTVYLQMNSRKPEDTAVYYCAATLPGWYNEDDSWGQGTQVTVSS | low polyreactivity
32 | QVQLVESGGGLVQAGGSLRLSCAASGFISSENAMGWYRQAPGKERELVAATSSGGSTNYADSVKGRFTISRDNAKNTVYLQMNSLKPEDTAVYYCAALFPKNLQKVGRYDYWGQGTQVTVSS | low polyreactivity
33 | QVQLVESGGGLVQAGGSLRLSCAASGFISTINVMGCYRQAPGKERELVAAITYIDGSTFYADSVKGRFTISRDNAKNTVYFQMNSLKPEDTAVYYCASDLYLWGAVFLYVRSTGLDYWGQGTQVTVSS | low polyreactivity
34 | QVQLVESGGGLVQAGGSLRLSCAASGFISTYYAMGWYRQAPGKERELVAAISWNGGSTYYADSVKGRFTISRDNAKNTVYLQMNSLKPEDTADYYCAAYLGKWRQFYSSDYDYWGQGTQVTVSS | low polyreactivity
35 | QVQLVESGGGLVQAGGSLRLSCAASGFISVSNAMGWYRQAPGKERELVAAIRGSGGSTYYADSVKGRFTISRDNAKNTVYLQMNSLKPEDTAVYYCAATAYPRGSPPYNYWGQGTQVTVSS | high polyreactivity
36 | QVQLVESGGGLVQAGGSLRLSCAASGFIVRYNAMGWYRQAPGKERELVAVITDSSDSTYYADSVKGRFTISRDNAKNTVYLQMNSLKPVDTAVYYCDTDYGYAGDYWGQGSQVTVSS | low polyreactivity
37 | QVQLVESGGGLVQAGGSLRLSCAASGFIYARYAMGWYRQAPGKERELVAGISGGGGRTYYADSVKGRFTISRDNAKNTVYLQMNSLKPEDTAVYYCAATPQSRDRRFNYWGQGTQVTVSS | high polyreactivity
38 | QVQLVESGGGLVQAGGSLRLSCAASGFIYDYAMGWYRQAPGKQREFVARINWSGGSTYYADSVKGRFTISRDNAKNTVYLQMNSLKPEDTAVYYCATSGWAWRTSNPYEYWGQGTQVTVSS | low polyreactivity
39 | QVQLVESGGGLVQAGGSLRLSCAASGFIYGLYAMGWYRQAPGKERELVASISRRGGSTYSADSVKGRVTISRDNAKNTVYLQMNSLKPEDTAVYYCAVDIVSIRGYTYGYWGQGTQVTVSS | high polyreactivity
40 | QVQLVESGGGLVQAGGSLRLSCAASGFIYHGYTMGWYSQAPGKERDLVAAITTSGTSTYYADSVKGRFTISRDNAKNTVYLQMNSLKPEDTAVYYCYDYVPGGYSRPYYYRFDHWGQGTQVTVSS | high polyreactivity
41 | QVQLVESGGGLVQAGGSLRLSCAASGFIYKINAMGWYRQAPGKERELVARITSGGRTNYADSVKGRFTISRDNAKNTVYLQMDSLKPEDTAVYYCAARYLAYGPTGYLYGYNYWGQGTQVTVSS | high polyreactivity
